Legend:
Details in all cases: remark: other sources report otherwise
[1] = target: T1, BMP7, P18075; experiment: Biacore SPR
T1 chain: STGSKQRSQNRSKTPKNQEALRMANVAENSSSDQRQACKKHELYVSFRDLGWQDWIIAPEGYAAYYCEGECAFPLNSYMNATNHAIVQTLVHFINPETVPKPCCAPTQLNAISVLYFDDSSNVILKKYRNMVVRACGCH

[2] = target: GDF8, O14793; experiment: Biacore SPR
[3] = target: GDF8, O14793; experiment: Biacore SPR; † very low signal

GDF8, O14793, sequence (O14793 267-375 limits assumed): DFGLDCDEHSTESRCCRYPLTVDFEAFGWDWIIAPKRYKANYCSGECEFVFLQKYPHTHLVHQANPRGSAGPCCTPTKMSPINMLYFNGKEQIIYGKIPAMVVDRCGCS

B1: ALK3-Fc homodimer, P36894 24-152 (Fc fusion, UniProt P36894 24-152, looked up, not shown: a dimerising Fc or GST)
chain: QNLDSMLHGTGMKSDSDQKKSENGVTLAPEDTLPFLKCYCSGHCPDDAINNTCITNGHCFAIIEEDDQGETTLASGCMKYEGSDFQCKDSPKAQLRRTIECCRTNLCNQYLQPTLPPVVIGPFFDGSIR
Kd [1]: 15 nM | koff [1]: 0.018 s⁻¹ | kon [1]: 1.2e+06 M⁻¹ s⁻¹

B2: ALK4-Fc homodimer, P36896 24-126 (Fc fusion, UniProt P36896 24-126, looked up, not shown: a dimerising Fc or GST)
chain: SGPRGVQALLCACTSCLQANYTCETDGACMVSIFNLDGMEHHVRTCIPKVELVPAGKPFYCLSSEDLRNTHCCYTDYCNRIDLRVPSGHLKEPEHPSMWGPVE
koff [2]: 0.0019 s⁻¹ | kon [2]: 130000 M⁻¹ s⁻¹ | Kd [3]: 15 nM

— patent US20190225669A1
